Legend:
[1] = molecular target: T1, human FcγRIII (CD16), CD16a (F158), on CD16-transfected Jurkat cells (human, UniProt P08637 17-254); test: summary of Table 5 assays
T1 construct: whole, on cells

human C1q (Sigma C0660) [2] = molecular target: T2, human C1q (Sigma C0660) (human, UniProt P02745 23-245; P02746 28-253; P02747 29-245); test: C1q ELISA on CD2, purified
T2 construct: Bought protein; also called complement protein C1q

human C1q (Sigma C0660) [3] = molecular target: T2, human C1q (Sigma C0660); test: C1q ELISA on CD2, transient
[4] = molecular target: T1, human FcγRIII (CD16), CD16a (F158), on …; test: CD16 bridging assay, purified
[5] = molecular target: T1, human FcγRIII (CD16), CD16a (F158), on …; test: CD16 bridging assay, transient

T1 sequence (P08637 17-254): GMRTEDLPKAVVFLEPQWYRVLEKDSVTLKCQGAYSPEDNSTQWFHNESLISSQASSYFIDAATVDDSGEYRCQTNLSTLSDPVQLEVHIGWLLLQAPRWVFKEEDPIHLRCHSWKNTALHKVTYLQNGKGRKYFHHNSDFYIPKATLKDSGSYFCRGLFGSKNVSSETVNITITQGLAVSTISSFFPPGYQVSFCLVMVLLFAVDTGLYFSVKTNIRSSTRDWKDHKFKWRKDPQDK
T2 sequence (P02745 23-245 limits assumed, chain 1 of 3): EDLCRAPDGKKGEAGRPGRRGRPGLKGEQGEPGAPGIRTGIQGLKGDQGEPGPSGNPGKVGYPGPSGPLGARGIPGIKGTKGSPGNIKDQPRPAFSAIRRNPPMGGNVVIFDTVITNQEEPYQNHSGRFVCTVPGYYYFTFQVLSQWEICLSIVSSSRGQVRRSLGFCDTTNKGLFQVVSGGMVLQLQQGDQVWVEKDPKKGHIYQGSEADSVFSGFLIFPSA
T2 sequence (P02746 28-253 limits assumed, chain 2 of 3): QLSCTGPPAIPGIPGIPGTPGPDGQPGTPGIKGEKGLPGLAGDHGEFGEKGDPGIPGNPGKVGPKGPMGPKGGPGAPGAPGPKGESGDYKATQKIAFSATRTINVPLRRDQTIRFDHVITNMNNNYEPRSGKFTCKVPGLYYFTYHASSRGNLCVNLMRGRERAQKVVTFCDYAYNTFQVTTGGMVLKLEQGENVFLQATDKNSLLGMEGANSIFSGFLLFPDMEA
T2 sequence (P02747 29-245 limits assumed, chain 3 of 3): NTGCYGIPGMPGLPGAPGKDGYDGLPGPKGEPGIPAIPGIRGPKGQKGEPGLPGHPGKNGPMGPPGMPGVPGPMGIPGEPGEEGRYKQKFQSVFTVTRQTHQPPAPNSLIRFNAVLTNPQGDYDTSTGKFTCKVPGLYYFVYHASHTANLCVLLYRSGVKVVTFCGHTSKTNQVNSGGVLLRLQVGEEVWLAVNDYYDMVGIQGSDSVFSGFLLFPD

fold decrease in binding vs WT [1]: > 10 fold
fold decrease in binding vs WT (human C1q (Sigma C0660) [2]): 3 fold
fold decrease in binding vs WT (human C1q (Sigma C0660) [3]): 5 fold
fold decrease in binding vs WT [4]: 5 fold
fold decrease in binding vs WT [5]: 13 fold
B1: chCB6-huIgG1 Y296A (antibody, name in EU numbering)
heavy: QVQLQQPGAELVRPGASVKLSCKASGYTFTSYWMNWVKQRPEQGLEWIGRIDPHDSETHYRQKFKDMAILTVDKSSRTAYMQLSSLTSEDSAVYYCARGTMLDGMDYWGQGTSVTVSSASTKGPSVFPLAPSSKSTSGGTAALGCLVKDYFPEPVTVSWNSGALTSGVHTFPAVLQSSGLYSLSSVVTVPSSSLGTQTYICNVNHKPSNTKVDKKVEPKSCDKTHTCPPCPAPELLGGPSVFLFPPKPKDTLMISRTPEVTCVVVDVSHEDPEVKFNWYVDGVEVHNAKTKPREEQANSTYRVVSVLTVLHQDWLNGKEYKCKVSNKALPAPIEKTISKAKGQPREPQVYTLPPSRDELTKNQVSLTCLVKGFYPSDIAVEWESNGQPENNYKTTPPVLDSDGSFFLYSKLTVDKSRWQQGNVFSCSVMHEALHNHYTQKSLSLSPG
light: QIVLTQSPAIMSASPGEKVTMTCRASSSVSHMHWYQQKSGTSPKRWIYDTSKLASGVPARFSGSGSGTSYSLTISSVEAEDAATYYCQQWSSNPLTFGAGTKLELKRTVAAPSVFIFPPSDEQLKSGTASVVCLLNNFYPREAKVQWKVDNALQSGNSQESVTEQDSKDSTYSLSSTLTLSKADYEKHKVYACEVTHQGLSSPVTKSFNRGEC
notes: copies: 2 + 2

Reference: patent US20100203046A1 (Biogen, published 2010)
